We go through 26 sequences from the DeepSol protein solubility set.

The series can be described thus: soluble on expression in E. coli; label from the status in PepcDB or PDB records.
As for “SPLLLYTCLLWLPTSGLWTVQAMDPNAAYVNMSNHHRGLASANVDFAFSLYKHLVALSPKKNIFISPVSISMALAMLSLGTCGHTRAQLLQGLGFNLTERSETEIHQGFQHLHQLFAKSDTSLEMTMGNALFLDGSLELLESFSADIKHYYESEVLAMNFQDWATASRQINSYVKNKTQGKIVDLFSGLDSPAILVLVNYIFFKGTWTQPFDLASTREENFYVDETTVVKVPMMLQSSTISYLHDAELPCQLVQMNYVGNGTVFFILPDKGKMNTVIAALSRDTINRWSAGLTSSQVDLYIPKVTISGVYDLGDVLEEMGIADLFTNQANFSRITQDAQLKSSKVVHKAVLQLNEEGVDTAGSTGVTLNLTSKPIILRFNQPFIIMIFDHFTWSSLFLARVMNPV”, the “soluble on expression in E. coli” value was “soluble”.
Consider “SQACVMPSLLQNMVGFSEVARATQTDPRPQRPAPPQPQVATMPWSQPGSWARRGFVPAWSQPPALSQQKLARQCCLGPWAGLIPHQQPLPRHPPQASSFPTTAGLWPPAFAQCGTLGHRAIYLVLWPPFLGPWLSSLQEKPHFIPQLPPACTPHPVPWWGLSIPGSKGRRSAPFLPLSLGRLGAQLWKHHPATHLSCGSRFFGGS”, for which the “soluble on expression in E. coli” value is recorded as “soluble”.
In the case of “SRDEIATTVFFVTRLVKKHDKLSKQQIEDFAEKLMTILFETYRSHWHSDCPSKGQAFRCIRINNNQNKDPILERACVESNVDFSHLGLPKEMTIWVDPFEVCCRYGEKNHPFTVASFKGRWEEWELYQQISYAVSRASSDVSSGTSCDEESCSKEPRVIPKVSNPKSIYQVKSVPVLFYTFFLSNSKKNALIMKTKKQKNMERTKL”, the “soluble on expression in E. coli” value is reported as “soluble”.
As to “SREEFEQILQERNELKAKVFLLKEELAYFQRELLTDHRVPSLLLEAMKVAVRKQRKKIKAKMLGT”, the “soluble on expression in E. coli” value was “soluble”.
For “SRLDIIRAEMDVVPSPGLPEKVNEKSKNIPLPEGINLLSSKEIIDLIQTHRHQLELYVTKFNPLTDFAGKIHAFRDQFKQLEENFEDLHEQKDKVQALLENARILESKYVASWQDYHSEFSKKYGDIALKKKLEQNTKKLDEESSQLETTTRSIDSADDLDQFIKNYLDIRTQYHLRREKLATWDKQGNLKY”, the “soluble on expression in E. coli” value is reported as “soluble”.
To “SRLLKTDLLEDVFNVENESFMQETELKENEYSVNLRTRFWFRGRAYDGWINLVNPFRATMVLGTPGSGKSYAIINQYIKQTIEKGYSLFLYDFKYPDLSEIAYNHLLAHLDGYKVKPKFYVINFDNPRESHRCNPIHPDFMTDISDAYESAYTIMLNLNRTWISKQGDFFVESPIILLASIIWYLKIYKNGKYCTFPHAIEFLNRKYADIFPILTSYPELENYLSPFMDAWESSAVEQLQGQIASAKIPLSRMISPALYWVMTADDFTLDINNPEEPKVLVVGNNPDRQGIYGAALGLYNSRIVKLINKKKRLKSAVIIDELPTIYMRGLDNLIATARSNKVAVMLGFQDFSQLKRDYGDKESAVICNTVGNVFAGQVVAETAKTLSERFGKVLQKRQNMTINRNETSVSINTQMDSLIPASKISNLTQGMFVGAVADNFDERIEQKIFHAEIVVDNEQVRRETARYVKIPQIIDFTDKDGNDTMQQQIDANYYRIKSEVRQIVADEIGRIKADPELSHLIKDK” belongs “not soluble”.
Regarding “SRTVALGIVAMACLVAIAHGGNFFQDAEVSWGQGRGKIVDGGRGLDLTLDRSSGSGFQSKSEYLFGKIDMQIKLVPGGWWNQELSDMSYRRMRWVQRKFMIYNYCTDAKRFPQGTPAECKLR”, the “soluble on expression in E. coli” value is given as “soluble”.
In the case of “SSDSFDRAPEQTKPQRAPPSSQDKIPQQNSESAMAKPQVVVAPVLMSKLSANAPEFYPSGYSSNYTESYEDGCEDYPTLSEYVQDFLNHLTEQPGSFETEIEQFAETLNGWVTTDDALQELVELIYQQATSIPNFSYMGARLCNYLSHHLTISPQSGNFRQLLLQRCRTEYEAKDQAAKGDEVTRKRFHAFVLFLGELYLNLEIKGTNGQVTRADILQVGLRELLNALFSNPMDDNLICAVKLLKLTGSVLEDTWKEKGKTDMEEIIQRIENVVLDANCSRDVKQMLLKLVELRSSNWGRVHATSTYREATPENDPNYFMNEPTFYTSDGVPFTAADPDYQEKYQELLEREDFFPDYEENGTDLSGAGDPYLDDIDDEMDPEIEEAYEKFCLESERKRKQ”, the “soluble on expression in E. coli” value was “not soluble”.
“SSDVTFLVEGRPFYAHKVLLFTASPRFKALLSSKPTNDNTCIEIGYVKYPIFQLVMQYLYYGGPESLLIKNNEIMELLSAAKFFQLEALQRHCEIICAKSINTDNCVDIYSHAKFLGVTELSAYCEGYFLKNMMVLIENEAFKQLLYDKNGEGAGQDVLQDLQRTLAIRIQSIHLSSSKGSVV”: the “soluble on expression in E. coli” value is “soluble”.
On to “SSFKKILGLSSKSHKKSKKMGLPPPYDESSPMETQPSAPLSNDFFGMEDMDLYDKDSLRYEKFRFMLKMTVRSNKPFRSYDDVTAAVSQWDNSYIGMVGKRPFYKIIALIGSSHLQATPAVLADLNQPEYYATLTGRCFLPHRLGLIPPMFNVSETFRKPFNIGIYKGTLDFTFTVSDDESNEKVPHVWEYMNPKYQSQIQKEGLKFGLILSKKATGTWVLDQLSPFK”, for which the “soluble on expression in E. coli” value is on record as “soluble”.
Take “SSLIKKIEENERKDTLNTLQNMFPDMDPSLIEDVCIAAASRIGPCVDALLSLSE”: the “soluble on expression in E. coli” value is reported as “soluble”.
Regarding “SSMLPSFGFTQEQVACVCEVLQQGGNLERLGRFLWSLPACDHLHKNESVLKAKAVVAFHRGNFRELYKILESHQFSPHNHPKLQQLWLKAHYVEAEKLCGRPLGAVGKYRVRRKFPLPRTIWDGEETSYCFKEKSRGVLREWYAHNPYPSPREKRELAEATGLTTTQVSNWFKNRRQRDRAAEAKERENTENNNSSSNKQNQLSPLEGGKPLMSSSEEEFSPPQSPDQNSVLLLQGNMGHARSSNYSLPGLTASQPSHGLQTHQHQLQDSLLGPLTSSLVDLGS”, the “soluble on expression in E. coli” value is “soluble”.
Take “SSNPRSLEEEKYDMSGARLALILCVTKAREGSEEDLDALEHMFRQLRFESTMKRDPTAEQFQEELEKFQQAIDSREDPVSCAFVVLMAHGREGFLKGEDGEMVKLENLFEALNNKNCQALRAKPKVYIIQACRGEQRDPGETVGGDEIVMVIKDSPQTIPTYTDALHVYSTVEGYIAYRHDQKGSCFIQTLVDVFTKRKGHILELLTEVTRRMAEAELVQEGKARKTNPEIQSTLRKRLYLQ”: the “soluble on expression in E. coli” value is given as “soluble”.
To “SSRERIKRELPPVQEHIDKLRKVIEEGNYYGALQMYKSISARYVTAQRFSEALDILFSGACIELEHGLVNCGADLAILFVDTLVKATSPCNDETLDRIRCIFKLFPRVPVPPHLVDVSDDEDVQNLQESLGEARSRVENLTSFLRAAIKWSAEFGGPRTGYPELHAMLGDYLYTECPELDMVRISRHFVRAEDPEKFASMLVNFMGRCYPGEDDLAIARAVLMYLSMGNMKDANFMMDEIKKQAETKNPELSESDLIQFISYLLETLQRDALPLFNMLRVKYKSSIDRDQLLNELLDEIAERFYGVQRKNPLQGMFGDIFKMMG” belongs “soluble”; to “SSVASALLLQEAQAGFCRVDGTIDNNHTGFTGSGFANTNNAQGAAVVWAIDATSSGRRTLTIRYANGGTANRNGSLVINGGSNGNYTVSLPTTGAWTTWQTATIDVDLVQGNNIVQLSATTAEGLPNIDSLSVVGGTVRAGNCG”, “soluble”.
To “SSVLLRPILPEDEPKHASFISQVSHDDLYKRFFSEVGEFNHEALANFTQIDYDREMAFVATKQIDGEEIIIAVVRALSDPNHTNTEFAVLVRSDLKGLGLGKILMEKIIRYCQSIGIKVMTGMTMPANHGMIGLAQHLGFSVDIQMSDGVVDMFLEL” belongs “not soluble”; to “STAREQPIFSTRAHVFQIDPATKRNWIPAGKHALTVSYFYDATRNVYRIISIGGAKAIINSTVTPNMTFTKTSQKFGQWADSRANTVYGLGFASEQHLTQFAEKFQEVKEAARLARE”, “soluble”.
Regarding “STFEELNGDYSIERMDSVIKALEEVLRSALPQGCITVGVYEAAKSLNVDPDNVVLCILATDDDDVKDVALQIHFTLIQAFCCENDINILRVNNTRRLANILGGAGMHGSEQMDLHCILVTVPHASTWKNPALGKVNRFCRESRCMDQWVPIINLPER”, the “soluble on expression in E. coli” value was “soluble”.
In the case of “STLSRFAYNGKRCPSSYNILDNSKIISEECRKELTALLHHYYPIEIDPHRTVKEKLPHMVEWWTKAHNLLCQQKIQKFQIAQVVRESNAMLREGYKTFFNTLYHNNIPLFIFSAGIGDILEEIIRQMKVFHPNIHIVSNYMDFNEDGFLQGFKGQLIHTYNKNSSVCENCGYFQQLEGKTNVILLGDSIGDLTMADGVPGVQNILKIGFLNDKVEERRERYMDSYDIVLEKDETLDVVNGLLQHILCQGVQLEMQGP”, the “soluble on expression in E. coli” value is listed as “soluble”.
Take “STRDDDDDEDDEEEEDSGAWGRESYAFDGFHPTEEFGFSFSPRGGMRFHGNFGFDDLVRDFNSIFSEMGAWTLPSHSPELPGPESETPGVRLREGQTLRDSMLKYPDSHQPRIFEGVLESHAKPESSKPAPDWGSQGPFHRLDDTWPVSPHSRAREDKDLDSQVSQEGLGPLLQPQPKSYFKSISVTKITKPDGTVEEHRTVVDGEGRRETTVTHQEAHDSSRSDPDPPRSSALDDPFSILDLLLGRWFRSR”: the “soluble on expression in E. coli” value is given as “soluble”.
As for “STSCVAEEPIKKIAIFGGTHGNELTGVFLVTHWLKNGAEVHRAGLEVKPFITNPRAVEKCTRYIDCDLNRVFDLENLSKEMSEDLPYEVRRAQEINHLFGPKNSDDAYDVVFDLHNTTSNMGCTLILEDSRNDFLIQMFHYIKTCMAPLPCSVYLIEHPSLKYATTRSIAKYPVGIEVGPQPHGVLRADILDQMRRMLKHALDFIQRFNEGKEFPPCAIDVYKIMEKVDYPRNESGDVAAVIHPNLQDQDWKPLHPGDPVFVSLDGKVIPLGGDCTVYPVFVNEAAYYEKKEAFAKTTKLTLNAKSIRSTLH”, the “soluble on expression in E. coli” value was “not soluble”.
To “SVRTACKSRAVSSGKQTGKWQSWSDAGVLTVFECEGLKLILNTWTPIPFSPFPVHHLFTPMLIGRLCGTRIETLALIHGGISLPATALRSPNSGVKLPLLVSPLFPMETTPSALRLLSSHKAESGSPTLFTLVHLLPLLLQ” belongs “soluble”.
For “SWQTYVDTNLVGTGAVTQAAIIGHDGNTWATSAGFAVSPANGAALANAFKDATAIRSNGFELAGTRYVTIRADDRSVYGKKGSAGVITVKTSKAILIGVYNEKIQPGTAANVVEKLADYLIGQGF”, the “soluble on expression in E. coli” value is given as “soluble”.
Regarding “SYETSQHNLDAVEAVLSRLQKQTGEMAAYMVPVGYRALCVSQRESMQALRCSFVQGQSQPLLRGASSKVMLAYMPAARCEKILRYFGEDPTLDKWQSEFEKIRRHGYAVSTSEIDPGVSGISAPVMKGSKLIGAISVMAPAHRVESNKQRIILHVLQAARALPPER”, the “soluble on expression in E. coli” value is on record as “not soluble”.
To “SYYHHHHHHLESTSLYKKAGLKIKAVGAYSAKQPLEPMDITRREPGPNDVKIEIAYCGVCHSDLHQVRSEWAGTVYPCVPGHEIVGRVVAVGDQVEKYAPGDLVGVGCIVDSCKHCEECEDGLENYCDHMTGTYNSPTPDEPGHTLGGYSQQIVVHERYVLRIRHPQEQLAAVAPLLCAGITTYSPLRHWQAGPGKKVGVVGIGGLGHMGIKLAHAMGAHVVAFTTSEAKREAAKALGADEVVNSRNADEMAAHLKSFDFILNTVAAPHNLDDFTTLLKRDGTMTLVGAPATPHKSPEVFNLIMKRRAIAGSMIGGIPETQEMLDFCAEHGIVADIEMIRADQINEAYERMLRGDVKYRFVIDNRTLTD” belongs “soluble”.
Consider “TAQFSWDTQLNFSQNKSKIIELLPGKPGMQYALGGSDALQVYAVAGGAYGEIWGTKYQRVEEGEFKGQLLLNESGLPQATSDKHKIGEQQPDFLLGWTNTFNYKNFTLSFLIDGRFGGDIFSFTNMNLQRSGIAECTAPGGKREDIVVAGVIKDGNGYKVNDQSVSLERYYKALATGRAGISEAYIYDATNIRLRNIALSYRFPSSMLKKTPFQQVKLGFTVNNVWMISSHLDGIDPESVYATSTNATGLENSSAPTSRSYLFNVTLGF”, for which the “soluble on expression in E. coli” value is “not soluble”.
